Measured values reported in US20230020089A1.

Experiments:
[1] = target: […] presented by HLA-A*0201 (EBV; human); assay: cell-based or functional assay
[2] = target: […] presented by HLA-A*0201 (HCMV; human); assay: cell-based or functional assay

Work on “TCR recognizing […] presented by A*0201 (PDB #3REV)” yielded a luciferase induction, reporter T cells + U-87 APCs, short cassette 9AA (relative to uninfected controls) [1] of 12, a luciferase induction, reporter T cells + U-87 APCs, short cassette 17AA (relative to uninfected controls) [1] of 10.3 and a luciferase induction, reporter T cells + U-87 APCs, short cassette 25AA (relative to uninfected controls) [1] of 14.6. The luciferase induction, reporter T cells + U-87 APCs, short cassette AAY (relative to uninfected controls) [1] was 11.3, the luciferase induction, reporter T cells + U-87 APCs, short cassette DPP (relative to uninfected controls) [1] was 1.1 and the luciferase induction, reporter T cells + U-87 APCs, short cassette RR (relative to uninfected controls) [1] was 8.5. The luciferase induction, reporter T cells + U-87 APCs, targeting cassette A [1] was 6.1, the luciferase induction, reporter T cells + U-87 APCs, targeting cassette B [1] was 6.3 and the luciferase induction, reporter T cells + U-87 APCs, targeting cassette C [1] was 7.6. For the same substance, the luciferase induction, reporter T cells + U-87 APCs, targeting cassette D [1] was 7, the luciferase induction, reporter T cells + U-87 APCs, targeting cassette E [1] was 5.9 and the luciferase induction, reporter T cells + U-87 APCs, targeting cassette F [1] was 3.7. For the same substance, the luciferase induction, reporter T cells + U-87 APCs, targeting cassette G [1] was 7.6, the luciferase induction, reporter T cells + U-87 APCs, targeting cassette H [1] was 5.4 and the luciferase induction, reporter T cells + U-87 APCs, targeting cassette J [1] was 6.4. It also gave a luciferase induction, reporter T cells, short cassette AAY [1] of 11.3.
In the case of “TCR recognizing […] presented by A*0201 (PDB #5D2N)”, the luciferase induction, reporter T cells + U-87 APCs, short cassette 9AA (relative to uninfected controls) [2] is reported as 33.6, the luciferase induction, reporter T cells + U-87 APCs, short cassette 17AA (relative to uninfected controls) [2] is reported as 42.8 and the luciferase induction, reporter T cells + U-87 APCs, short cassette 25AA (relative to uninfected controls) [2] is reported as 42.3. For the same substance, the luciferase induction, reporter T cells + U-87 APCs, short cassette AAY (relative to uninfected controls) [2] was 24.5, the luciferase induction, reporter T cells + U-87 APCs, short cassette DPP (relative to uninfected controls) [2] was 0.9 and the luciferase induction, reporter T cells + U-87 APCs, short cassette RR (relative to uninfected controls) [2] was 21.7. For the same substance, the luciferase induction, reporter T cells + U-87 APCs, targeting cassette A [2] was 32.5, the luciferase induction, reporter T cells + U-87 APCs, targeting cassette B [2] was 31.8 and the luciferase induction, reporter T cells + U-87 APCs, targeting cassette C [2] was 29.1. It also gave a luciferase induction, reporter T cells + U-87 APCs, targeting cassette D [2] of 29.1, a luciferase induction, reporter T cells + U-87 APCs, targeting cassette E [2] of 28.4 and a luciferase induction, reporter T cells + U-87 APCs, targeting cassette F [2] of 20.4. The luciferase induction, reporter T cells + U-87 APCs, targeting cassette G [2] was 35, the luciferase induction, reporter T cells + U-87 APCs, targeting cassette H [2] was 30.3 and the luciferase induction, reporter T cells + U-87 APCs, targeting cassette J [2] was 38.1. It also gave a luciferase induction, reporter T cells, short cassette AAY [2] of 24.5.
